T1: LRRC7, Q96NW7
T1 sequence (Q96NW7 1440-1537, limits assumed, looked up): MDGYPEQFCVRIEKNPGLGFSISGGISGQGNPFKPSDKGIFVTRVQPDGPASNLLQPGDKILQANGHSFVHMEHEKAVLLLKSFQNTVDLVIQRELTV

T2: DLG3_2, Q92796
T2 sequence (Q92796 221-321, limits assumed, looked up): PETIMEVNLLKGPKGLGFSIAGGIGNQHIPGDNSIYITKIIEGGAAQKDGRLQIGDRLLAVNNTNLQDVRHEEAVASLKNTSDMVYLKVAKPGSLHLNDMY

T3: SIPA1L2, Q9P2F8
T3 sequence (Q9P2F8 945-1036, limits assumed, looked up): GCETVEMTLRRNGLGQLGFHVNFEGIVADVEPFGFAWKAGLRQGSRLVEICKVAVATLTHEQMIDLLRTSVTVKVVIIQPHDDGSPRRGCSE

T4: APBA2_2, Q99767
T4 sequence (Q99767 654-744, limits assumed, looked up): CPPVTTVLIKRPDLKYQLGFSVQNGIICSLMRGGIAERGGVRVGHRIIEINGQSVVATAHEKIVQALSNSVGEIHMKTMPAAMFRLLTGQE

T5: FRMPD1, Q5SYB0
T5 sequence (Q5SYB0 52-145, limits assumed, looked up): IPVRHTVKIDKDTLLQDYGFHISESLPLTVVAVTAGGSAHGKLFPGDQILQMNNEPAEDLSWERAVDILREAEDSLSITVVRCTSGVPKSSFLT

T6: APBA2_1, Q99767
T6 sequence (Q99767 563-664, limits assumed, looked up): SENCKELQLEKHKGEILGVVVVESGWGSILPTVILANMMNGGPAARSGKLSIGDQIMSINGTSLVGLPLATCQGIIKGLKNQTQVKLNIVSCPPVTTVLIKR

T7: RADIL, Q96JH8
T7 sequence (Q96JH8 971-1071, limits assumed, looked up): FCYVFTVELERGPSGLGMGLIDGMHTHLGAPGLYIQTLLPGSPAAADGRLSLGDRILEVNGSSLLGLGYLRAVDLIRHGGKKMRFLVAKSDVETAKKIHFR

T8: MPP2, Q14168
T8 sequence (Q14168 180-250, limits assumed, looked up): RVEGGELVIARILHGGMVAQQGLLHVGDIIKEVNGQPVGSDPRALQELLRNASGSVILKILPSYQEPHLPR

T9: TIAM2, Q8IVF5
T9 sequence (Q8IVF5 885-986, limits assumed, looked up): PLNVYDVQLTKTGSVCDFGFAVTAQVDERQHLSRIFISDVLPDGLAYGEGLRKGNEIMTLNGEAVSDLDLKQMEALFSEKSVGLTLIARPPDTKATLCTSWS

T10: GRIP1_5, Q9Y3R0
T10 sequence (Q9Y3R0 568-668, limits assumed, looked up): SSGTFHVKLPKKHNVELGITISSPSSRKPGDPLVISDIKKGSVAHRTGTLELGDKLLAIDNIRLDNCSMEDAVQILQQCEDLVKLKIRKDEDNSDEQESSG

T11: APBA1_2, Q02410
T11 sequence (Q02410 742-832, limits assumed, looked up): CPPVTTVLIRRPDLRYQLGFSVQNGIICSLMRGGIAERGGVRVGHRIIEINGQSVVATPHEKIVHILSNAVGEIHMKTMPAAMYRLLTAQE

T12: LNX2_2, Q8N448
T12 sequence (Q8N448 334-432, limits assumed, looked up): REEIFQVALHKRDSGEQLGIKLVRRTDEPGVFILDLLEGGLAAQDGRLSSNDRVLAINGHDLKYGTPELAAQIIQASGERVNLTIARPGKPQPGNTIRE

T13: NHERF3_4, Q5T2W1
T13 sequence (Q5T2W1 373-468, limits assumed, looked up): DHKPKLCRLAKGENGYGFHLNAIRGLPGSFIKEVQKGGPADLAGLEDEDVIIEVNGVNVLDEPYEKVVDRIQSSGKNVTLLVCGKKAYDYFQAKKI


Tests used:
Test in all cases: holdup assay
Parameters in all cases: key: below the threshold = too weak to quantify, mostly under pKd 3.1 to 4
Details in all cases: plain residues with an end cap or a label only (N-terminal biotin on a linker: ado-ado)
LRRC7, Q96NW7 = molecular target: T1, LRRC7, Q96NW7
DLG3_2, Q92796 = molecular target: T2, DLG3_2, Q92796
NOS1, P29475 = molecular target: NOS1, P29475
SIPA1L2, Q9P2F8 = molecular target: T3, SIPA1L2, Q9P2F8
APBA2_2, Q99767 = molecular target: T4, APBA2_2, Q99767
FRMPD1, Q5SYB0 = molecular target: T5, FRMPD1, Q5SYB0
MAST2, Q6P0Q8 = molecular target: MAST2, Q6P0Q8
Inadl_6, Q8NI35 = molecular target: Inadl_6, Q8NI35
APBA2_1, Q99767 = molecular target: T6, APBA2_1, Q99767
GRIP2_5, Q9C0E4 = molecular target: GRIP2_5, Q9C0E4
DLG4_1, P78352 = molecular target: DLG4_1, P78352
MAGI2_5, Q86UL8 = molecular target: MAGI2_5, Q86UL8
RADIL, Q96JH8 = molecular target: T7, RADIL, Q96JH8
MPP2, Q14168 = molecular target: T8, MPP2, Q14168
LNX1_2, Q8TBB1 = molecular target: LNX1_2, Q8TBB1
FRMPD3, Q5JV73 = molecular target: FRMPD3, Q5JV73
TJP1_2, Q07157 = molecular target: TJP1_2, Q07157
MAGI2_4, Q86UL8 = molecular target: MAGI2_4, Q86UL8
TIAM2, Q8IVF5 = molecular target: T9, TIAM2, Q8IVF5
GRIP1_5, Q9Y3R0 = molecular target: T10, GRIP1_5, Q9Y3R0
SCRIB_3, Q14160 = molecular target: SCRIB_3, Q14160
APBA1_2, Q02410 = molecular target: T11, APBA1_2, Q02410
LNX2_2, Q8N448 = molecular target: T12, LNX2_2, Q8N448
NHERF3_4, Q5T2W1 = molecular target: T13, NHERF3_4, Q5T2W1
PDLIM1, O00151 = molecular target: PDLIM1, O00151
Chain of PDLIM1, O00151 (O00151 1-87): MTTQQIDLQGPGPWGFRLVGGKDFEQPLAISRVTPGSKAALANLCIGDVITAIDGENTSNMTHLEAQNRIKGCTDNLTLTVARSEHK

Chain of GRIP2_5, Q9C0E4 (Q9C0E4 544-642): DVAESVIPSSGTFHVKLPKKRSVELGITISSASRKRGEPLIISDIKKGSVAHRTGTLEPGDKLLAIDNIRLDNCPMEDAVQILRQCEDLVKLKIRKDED
Chain of MAGI2_4, Q86UL8 (Q86UL8 772-865): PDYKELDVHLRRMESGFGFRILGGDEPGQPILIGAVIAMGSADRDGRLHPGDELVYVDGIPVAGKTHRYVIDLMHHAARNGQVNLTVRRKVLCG
Chain of LNX1_2, Q8TBB1 (Q8TBB1 371-470): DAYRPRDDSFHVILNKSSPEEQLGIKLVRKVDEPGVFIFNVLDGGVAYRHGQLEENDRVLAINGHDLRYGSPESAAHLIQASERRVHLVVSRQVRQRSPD
Chain of FRMPD3, Q5JV73 (Q5JV73 12-100): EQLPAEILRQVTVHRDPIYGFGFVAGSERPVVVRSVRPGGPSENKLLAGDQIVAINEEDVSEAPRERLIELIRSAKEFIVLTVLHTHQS
Chain of DLG4_1, P78352 (P78352 62-152): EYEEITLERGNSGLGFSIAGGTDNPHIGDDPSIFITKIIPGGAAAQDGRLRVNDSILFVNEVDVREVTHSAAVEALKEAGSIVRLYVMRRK
Chain of Inadl_6, Q8NI35 (Q8NI35 1058-1167): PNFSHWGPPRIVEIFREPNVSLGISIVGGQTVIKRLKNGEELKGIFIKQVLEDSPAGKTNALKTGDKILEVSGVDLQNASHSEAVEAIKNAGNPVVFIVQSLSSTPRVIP
Chain of MAGI2_5, Q86UL8 (Q86UL8 915-1017): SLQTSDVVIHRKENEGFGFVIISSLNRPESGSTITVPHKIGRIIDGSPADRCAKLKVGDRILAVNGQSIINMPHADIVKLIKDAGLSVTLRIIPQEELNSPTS
Chain of MAST2, Q6P0Q8 (Q6P0Q8 1099-1202): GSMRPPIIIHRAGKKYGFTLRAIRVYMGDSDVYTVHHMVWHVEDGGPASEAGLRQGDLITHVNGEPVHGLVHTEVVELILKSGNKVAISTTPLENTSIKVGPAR
Chain of SCRIB_3, Q14160 (Q14160 999-1103): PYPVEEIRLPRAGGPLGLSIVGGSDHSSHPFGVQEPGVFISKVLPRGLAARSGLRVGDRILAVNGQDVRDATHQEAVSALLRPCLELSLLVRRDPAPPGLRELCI
Chain of TJP1_2, Q07157 (Q07157 181-274): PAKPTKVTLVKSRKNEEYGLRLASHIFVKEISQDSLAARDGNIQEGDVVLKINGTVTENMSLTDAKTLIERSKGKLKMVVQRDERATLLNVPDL
Chain of NOS1, P29475 (P29475 9-101): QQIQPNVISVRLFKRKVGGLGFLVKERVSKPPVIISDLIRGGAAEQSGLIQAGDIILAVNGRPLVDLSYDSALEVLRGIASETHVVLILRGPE

pKd (LRRC7, Q96NW7)	pKd (DLG3_2, Q92796)	pKd (NOS1, P29475)	pKd (SIPA1L2, Q9P2F8)	pKd (APBA2_2, Q99767)	pKd (FRMPD1, Q5SYB0)	pKd (MAST2, Q6P0Q8)	pKd (Inadl_6, Q8NI35)	pKd (APBA2_1, Q99767)	pKd (GRIP2_5, Q9C0E4)	pKd (DLG4_1, P78352)	pKd (MAGI2_5, Q86UL8)	pKd (RADIL, Q96JH8)	pKd (MPP2, Q14168)	pKd (LNX1_2, Q8TBB1)	pKd (FRMPD3, Q5JV73)	pKd (TJP1_2, Q07157)	pKd (MAGI2_4, Q86UL8)	pKd (TIAM2, Q8IVF5)	pKd (GRIP1_5, Q9Y3R0)	Binder	other results
3.49	4.19	3.71	below the threshold	3.6	below the threshold	4.35	below the threshold	below the threshold	below the threshold	below the threshold	below the threshold	below the threshold	below the threshold	below the threshold	below the threshold	below the threshold	below the threshold	4.21	3.5	NVYGIESVKI [GRIA2, P42262]	pKd (SCRIB_3, Q14160): 3.56; pKd (APBA1_2, Q02410): 3.68; pKd (LNX2_2, Q8N448): 3.85; pKd (NHERF3_4, Q5T2W1): 3.75; pKd (PDLIM1, O00151): below the threshold
below the threshold	3.73	4.03	below the threshold	below the threshold	below the threshold	5.88	3.57	below the threshold	3.8	3.76	3.95	below the threshold	below the threshold	below the threshold	below the threshold	below the threshold	3.8	below the threshold	below the threshold	GIKKITSTAL [RPS6KA3, P51812]	pKd (SCRIB_3, Q14160): 5.06; pKd (APBA1_2, Q02410): 4.1; pKd (LNX2_2, Q8N448): below the threshold; pKd (NHERF3_4, Q5T2W1): 5.4; pKd (PDLIM1, O00151): 3.48
below the threshold	4.03	3.86	below the threshold	below the threshold	below the threshold	below the threshold	below the threshold	below the threshold	below the threshold	below the threshold	below the threshold	below the threshold	below the threshold	below the threshold	below the threshold	below the threshold	below the threshold	3.77	below the threshold	NNNVVKVDSV [MTNR1A, P48039]	pKd (SCRIB_3, Q14160): below the threshold; pKd (APBA1_2, Q02410): 3.92; pKd (LNX2_2, Q8N448): below the threshold; pKd (NHERF3_4, Q5T2W1): below the threshold; pKd (PDLIM1, O00151): below the threshold
below the threshold	3.97	below the threshold	below the threshold	below the threshold	below the threshold	4.68	below the threshold	below the threshold	below the threshold	below the threshold	below the threshold	4.19	below the threshold	below the threshold	below the threshold	below the threshold	below the threshold	4.59	below the threshold	DFLSTFHIRI [CIB2, O75838]	pKd (SCRIB_3, Q14160): 3.56; pKd (APBA1_2, Q02410): below the threshold; pKd (LNX2_2, Q8N448): 3.74; pKd (NHERF3_4, Q5T2W1): 3.66; pKd (PDLIM1, O00151): below the threshold
below the threshold	4.6	below the threshold	below the threshold	below the threshold	below the threshold	5.5	below the threshold	below the threshold	below the threshold	4.06	3.58	3.73	below the threshold	below the threshold	below the threshold	below the threshold	3.62	3.73	below the threshold	PSHPRLQTHV [KIRREL2, Q6UWL6]	pKd (SCRIB_3, Q14160): 4.26; pKd (APBA1_2, Q02410): 3.74; pKd (LNX2_2, Q8N448): 3.5; pKd (NHERF3_4, Q5T2W1): below the threshold; pKd (PDLIM1, O00151): below the threshold
below the threshold	4.08	3.53	below the threshold	below the threshold	below the threshold	4.89	below the threshold	below the threshold	below the threshold	below the threshold	4.29	below the threshold	below the threshold	below the threshold	below the threshold	below the threshold	3.58	4.14	below the threshold	TISFTQTSQF [SLC1A1, P43005]	pKd (SCRIB_3, Q14160): 3.72; pKd (APBA1_2, Q02410): below the threshold; pKd (LNX2_2, Q8N448): below the threshold; pKd (NHERF3_4, Q5T2W1): 4.41; pKd (PDLIM1, O00151): below the threshold

— paper PMC9482650, “Quantitative fragmentomics allow affinity mapping of interactomes” (Nature Communications, 2022)
